Measured values from US20200338203A1 (Bicycle, published 2020).
Numbered stars: 1 amine (or outer) side, 2 acyl side, 3 side chain; on linkers, the order of the positions; unused ones are H or OH. Bridge positions count the residues as written; N and C are the ends. Square brackets hold non-standard residues; d marks the D form. Primed or numbered codes have the meaning given here. Ends that are not written are not given here. K(Fl)″ = lysine labelled with carboxyfluorescein; K(Fl) = Lys carrying 5(6)-carboxyfluorescein; 1Nal = N[C@@H](Cc1cccc2ccccc12)C(=O)O; TBMB = c1c(C[*:1])cc(C[*:3])cc1C[*:2]; Gly(cPent) = N[C@H](C(=O)O)C1CCCC1; hArg = N=C(N)NCCCC[C@H](N)C(=O)O; Tle = CC(C)(C)[C@H](N)C(=O)O; AF488 = AlexaFluor488 label; Aib = CC(C)(N)C(=O)O; βAla = NCCC(=O)O; Sar = CNCC(=O)O

T1: Human EphA1 (Human, UniProt P21709 26-547)
T1 construct: extracellular domain; also called EphA1 (Ecto), Human
T1 sequence (looked up): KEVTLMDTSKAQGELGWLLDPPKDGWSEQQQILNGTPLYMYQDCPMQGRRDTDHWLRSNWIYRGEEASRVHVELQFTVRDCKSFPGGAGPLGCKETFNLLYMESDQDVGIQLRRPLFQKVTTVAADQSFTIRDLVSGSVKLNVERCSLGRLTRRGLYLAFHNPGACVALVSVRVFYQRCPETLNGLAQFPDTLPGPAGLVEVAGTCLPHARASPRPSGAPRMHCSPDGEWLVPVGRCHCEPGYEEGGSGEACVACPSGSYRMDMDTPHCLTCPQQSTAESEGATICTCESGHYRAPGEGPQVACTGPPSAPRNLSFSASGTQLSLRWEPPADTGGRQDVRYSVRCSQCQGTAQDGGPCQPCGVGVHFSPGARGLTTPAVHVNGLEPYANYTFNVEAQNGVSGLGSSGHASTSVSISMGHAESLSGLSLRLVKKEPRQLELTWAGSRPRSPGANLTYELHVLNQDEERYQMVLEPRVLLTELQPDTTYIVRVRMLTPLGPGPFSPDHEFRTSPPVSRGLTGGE


Key:
[1] = molecular target: T2, Human EphA2 (Human, UniProt P29317 24-537); assay: FP competition; competitor: fluorescent Compound 18
T2 construct: extracellular domain; also called EphA2 (Ecto), Human
T2 sequence (P29317 24-537): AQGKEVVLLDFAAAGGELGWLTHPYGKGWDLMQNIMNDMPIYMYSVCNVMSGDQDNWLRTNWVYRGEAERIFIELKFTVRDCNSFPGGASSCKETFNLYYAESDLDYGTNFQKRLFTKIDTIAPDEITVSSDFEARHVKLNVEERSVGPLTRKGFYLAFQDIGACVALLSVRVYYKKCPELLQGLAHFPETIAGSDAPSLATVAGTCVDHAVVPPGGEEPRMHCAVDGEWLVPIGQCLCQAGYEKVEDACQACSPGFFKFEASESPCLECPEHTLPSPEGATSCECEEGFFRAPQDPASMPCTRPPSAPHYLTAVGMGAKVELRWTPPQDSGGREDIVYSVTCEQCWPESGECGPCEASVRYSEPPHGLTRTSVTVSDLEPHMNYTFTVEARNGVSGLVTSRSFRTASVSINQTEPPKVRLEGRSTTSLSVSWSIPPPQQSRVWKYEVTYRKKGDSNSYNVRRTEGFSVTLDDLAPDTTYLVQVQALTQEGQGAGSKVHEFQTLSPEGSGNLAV
Procedure: (§1) Peptides without a fluorescent tag were tested in competition with a peptide with a fluorescent tag and a known Kd (Table 2). Peptides were diluted to an appropriate concentration in assay buffer as described in the direct binding assay with a maximum of 5% DMSO, then serially diluted 1 in 2. Five μL of diluted peptide was added to the plate followed by 10 μL of human or mouse EphA2 (Table 1) at a fixed concentration which was dependent on the fluorescent peptide used (Table 2), then 10 μL fluorescent peptide added. Measurements were conducted as for the direct binding assay, however the gain was determined prior to the first measurement.

[2] = molecular target: T2, Human EphA2; assay: FP competition; competitor: fluorescent Compound 66
Procedure: as §1

[3] = molecular target: T3, Human EphA2 (Ecto) (Human, UniProt P29317 24-537); assay: FP competition; competitor Compound 18
T3 construct: extracellular domain
T3 sequence (P29317 24-537): as above

[4] = molecular target: T4, mouse EphA2 (Mouse, UniProt Q03145 26-538); assay: FP direct binding, selectivity
T4 construct: extracellular domain; C-terminal polyHis; also called EphA2 (Ecto), Mouse
T4 sequence (Q03145 26-538): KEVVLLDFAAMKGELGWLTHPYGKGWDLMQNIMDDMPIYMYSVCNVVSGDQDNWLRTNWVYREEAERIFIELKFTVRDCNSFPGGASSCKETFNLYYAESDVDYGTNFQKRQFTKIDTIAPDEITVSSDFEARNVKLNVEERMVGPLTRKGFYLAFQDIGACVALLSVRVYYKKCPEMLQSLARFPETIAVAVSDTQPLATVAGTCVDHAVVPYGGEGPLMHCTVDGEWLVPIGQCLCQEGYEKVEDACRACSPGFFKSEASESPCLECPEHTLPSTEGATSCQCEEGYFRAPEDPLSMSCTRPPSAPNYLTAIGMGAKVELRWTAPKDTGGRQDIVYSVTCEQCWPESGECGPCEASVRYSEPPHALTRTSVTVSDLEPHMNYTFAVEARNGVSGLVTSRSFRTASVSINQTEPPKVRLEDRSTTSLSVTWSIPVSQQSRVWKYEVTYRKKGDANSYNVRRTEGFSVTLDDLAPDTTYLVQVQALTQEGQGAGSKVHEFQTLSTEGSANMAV
Procedure: (§2) The gain used for analysis was determined for each tracer at the end of the 60 minutes where there was no protein in the well. Data was analysed using Systat Sigmaplot version 12.0. mP values were fit to a user defined quadratic equation to generate a Kd value: f=ymin+(ymax−ymin)/Lig*((x+Lig+Kd)/2-sqrt((((x+Lig+Kd)/2)\hat{ }2)−(Lig*x))). “Lig” was a defined value of the concentration of tracer used.

[5] = molecular target: T1, Human EphA1; assay: FP direct binding, selectivity
Procedure: as §2

[6] = molecular target: T3, Human EphA2 (Ecto); assay: FP direct binding
[7] = molecular target: T5, Mouse EphA2 (Ecto) (Mouse, UniProt Q03145 26-538); assay: FP direct binding
T5 construct: extracellular domain; not shown: Fc fusion or C-terminal polyHis
T5 sequence (Q03145 26-538): as above

[8] = molecular target: Human & mouse EphA3 (Human & mouse) (UniProt P29320); assay: FP direct binding, selectivity
Sequence of Human & mouse EphA3 (Human & mouse) (P29320 21-541): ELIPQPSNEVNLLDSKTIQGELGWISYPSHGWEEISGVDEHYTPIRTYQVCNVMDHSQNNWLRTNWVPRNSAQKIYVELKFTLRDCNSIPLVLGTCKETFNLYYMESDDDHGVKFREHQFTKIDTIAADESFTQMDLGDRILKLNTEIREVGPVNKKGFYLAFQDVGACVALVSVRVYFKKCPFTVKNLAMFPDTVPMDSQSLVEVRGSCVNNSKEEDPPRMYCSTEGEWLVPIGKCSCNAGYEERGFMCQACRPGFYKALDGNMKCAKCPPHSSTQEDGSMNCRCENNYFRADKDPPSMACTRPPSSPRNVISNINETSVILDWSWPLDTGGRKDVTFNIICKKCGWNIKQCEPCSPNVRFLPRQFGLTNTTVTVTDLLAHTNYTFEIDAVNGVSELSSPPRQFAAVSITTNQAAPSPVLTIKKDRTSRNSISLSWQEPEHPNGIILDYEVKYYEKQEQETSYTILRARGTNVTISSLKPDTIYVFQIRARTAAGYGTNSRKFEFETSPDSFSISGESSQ

[9] = molecular target: dog EphA2 (Dog); assay: FP direct binding, selectivity
[10] = molecular target: rat EphA2 (Rat, UniProt D3ZBN3 27-205); assay: FP direct binding, selectivity
Procedure: as §2

| Ki [1] | Ki [2] | Binder | also measured |
| --- | --- | --- | --- |
| 394 nM |  | ADVHCPWAPFWCPVNRPGCA (linker 5-12-19 via TBMB, bicyclic peptide) [Compound 151] |  |
| 14.9 nM |  | ADVHCPWGPFWCPVN[dA]PGCA (linker 5-12-19 via TBMB, bicyclic peptide) [Compound 156] |  |
| 199 nM | 288 nM | [Sar][Sar]ACPWGPAWCPVNRPGC (linker 4-11-18 via TBMB, bicyclic peptide) [Compound 83] |  |
| > 1000 nM |  | [Sar][Sar]ACPWAPFWCPVNRPGC (linker 4-11-18 via TBMB, bicyclic peptide) [Compound 288] |  |
| > 1000 nM |  | [Sar][Sar]ACPWGPFWCAVNRPGC (linker 4-11-18 via TBMB, bicyclic peptide) [Compound 291] |  |
|  | 954 nM | [Sar][Sar]ACPWGPFWCPANRPGC (linker 4-11-18 via TBMB, bicyclic peptide) [Compound 292] |  |
| 89 nM | 110 nM | [Sar][Sar]ACPWGPFWCPVNRP[dA]C (linker 4-11-18 via TBMB, bicyclic peptide) [Compound 112] |  |

The remaining lines, values behind:

| Binder | Ki [1] | Ki [2] | also measured |
| --- | --- | --- | --- |
| [Sar][Sar]ACPWGPFWCPVNR[dA]GC (linker 4-11-18 via TBMB, bicyclic peptide) [Compound 105] | 677 nM | 471 nM |  |
| Ac-[Sar][Sar]A[dD]VTCPWGPAWCPVNRPGC (linker 7-14-21 via TBMB, bicyclic peptide) [Compound 173] | 6.69 nM |  |  |
| [Sar][Sar]ACPW[dA]PFWCPVNRPGC (linker 4-11-18 via TBMB, bicyclic peptide) [Compound 296] |  | 1000 nM |  |
| [βAla][Sar][Sar][Sar][Sar][Sar][Sar][Sar][Sar][Sar][Sar]H[dD][Gly(cPent)]PCP[1Nal]G[Aib]F[1Nal]CP[Tle]NR[Aib]GC (linker 16-23-30 via TBMB) [Compound 278] |  |  | Ki [3]: 0.46 nM |
| Ac-[Sar][Sar]H[dD]VTCP[1Nal]G[Aib]F[1Nal]CP[Tle]NR[Aib]GC (linker 7-14-21 via TBMB) [Compound 285] |  |  | Ki [3]: 1.21 nM |
| ACLVNDDCFYMGLCA[Sar][Sar][Sar][Sar][Sar][Sar]-{K(Fl)″} (linker 2-8-14 via TBMB, bicyclic peptide, fluorescent) [Compound 23] |  |  | Kd [4]: 386 nM |
| [βAla][Sar][Sar][Sar][Sar][Sar][Sar][Sar][Sar][Sar][Sar]H[dD][Gly(cPent)]TCP[1Nal]G[Aib]F[1Nal]CP[Tle]N[hArg]P[dD]C (linker 16-23-30 via TBMB) [Compound 280] |  |  | Ki [3]: 0.64 nM |
| ADVHCPWGAFWCPVNRPGCA (linker 5-12-19 via TBMB, bicyclic peptide) [Compound 152] | 1.8 nM |  |  |
| ACPWGPAWCPVNRPGCA (N-terminal Fl-G-Sar5 before the entry (5(6)-carboxyfluorescein, Gly, five sarcosines); three Cys cyclised on TBMB, bicyclic peptide, fluorescent) [Compound 12] |  |  | Kd [4]: 55.5 nM |
| [Sar][Sar]ACPWGPFWCPVN[dA]PGC (linker 4-11-18 via TBMB, bicyclic peptide) [Compound 302] | > 1000 nM | 1410 nM |  |
| ACMNDWLCSLGWTCA[Sar][Sar][Sar][Sar][Sar][Sar]-{K(Fl)} (linker 2-8-14 via TBMB) [Compound 1] |  |  | Kd [5]: 1640 nM |
| [βAla][Sar][Sar][Sar][Sar][Sar][Sar][Sar][Sar][Sar][Sar]H[dD][Gly(cPent)]TCP[1Nal]G[Aib]F[1Nal]CP[Tle]NR[Aib]GC (linker 16-23-30 via TBMB) [Compound 279] |  |  | Ki [3]: 0.59 nM |
| ACPWGPFWCPVARPGC (N-terminal Sar2 before the entry; three Cys cyclised on TBMB, bicyclic peptide) [Compound 101] | 293 nM | 265 nM |  |
| [Sar][Sar]ACPWGPFWCPVNRAGC (linker 4-11-18 via TBMB, bicyclic peptide) [Compound 104] | 124 nM | 194 nM |  |
| [Sar][Sar]ACPWGAFWCPVNRPGC (linker 4-11-18 via TBMB, bicyclic peptide) [Compound 289] | > 1000 nM | 1100 nM |  |
| [Sar][Sar]ACPWGPFWCPVNAPGC (linker 4-11-18 via TBMB, bicyclic peptide) [Compound 293] |  | 711 nM |  |
| [Sar][Sar]ACPWGPFWCPVNRPAC (linker 4-11-18 via TBMB, bicyclic peptide) [Compound 111] | 108 nM | 238 nM |  |
| [Sar][Sar]ACAWGPFWCPVNRPGC (linker 4-11-18 via TBMB, bicyclic peptide) [Compound 286] |  | 886 nM |  |
| [βAla][Sar][Sar][Sar][Sar][Sar][Sar][Sar][Sar][Sar][Sar]H[dD]VPCPWG[Aib]F[1Nal]CP[Tle]N[hArg]P[dD]C (linker 16-23-30 via TBMB) [Compound 269] |  |  | Ki [3]: 1.11 nM |
| [Sar][Sar]ACPWG[dA]FWCPVNRPGC (linker 4-11-18 via TBMB, bicyclic peptide) [Compound 297] |  | 1500 nM |  |
| {Ac-βAla}-[Sar][Sar][Sar][Sar][Sar][Sar][Sar][Sar][Sar][Sar]H[dD][Gly(cPent)]PCP[1Nal]G[Aib]F[1Nal]CP[Tle]N[hArg]P[dD]C (linker 15-22-29 via TBMB) [Compound 277] |  |  | Ki [3]: 0.53 nM |
| {AF488-βAla}-[Sar][Sar][Sar][Sar][Sar][Sar][Sar][Sar][Sar][Sar]H[dD]VPC[Aib][1Nal]G[Aib]F[1Nal]CP[Tle]N[hArg]P[dD]C (linker 15-22-29 via TBMB) [Compound 140] |  |  | Kd [6]: 2.05 nM; Kd [7]: 4.55 nM; Kd [8]: 3690 nM; Kd [9]: 8.7 nM; Kd [10]: 1.57 nM; Kd [4]: 4.55 nM |
| {AF488-βAla}-[Sar][Sar][Sar][Sar][Sar][Sar][Sar][Sar][Sar][Sar]H[dD][Gly(cPent)]PC[Aib][1Nal]G[Aib]F[1Nal]CP[Tle]NR[Aib][dD]C (linker 15-22-29 via TBMB) [Compound 146] |  |  | Kd [6]: 2.19 nM; Kd [8]: 7190 nM |
| ADVHCPWGPFWCPV[dA]RPGCA (linker 5-12-19 via TBMB, bicyclic peptide) [Compound 155] | 2 nM |  |  |
| {Ac-βAla}-[Sar][Sar][Sar][Sar][Sar][Sar][Sar][Sar][Sar][Sar]H[dD][Gly(cPent)]PC[Aib][1Nal]G[Aib]F[1Nal]CP[Tle]NR[Aib][dD]C (linker 15-22-29 via TBMB) [Compound 274] |  |  | Ki [3]: 2.28 nM |
| [βAla][Sar][Sar][Sar][Sar][Sar][Sar][Sar][Sar][Sar][Sar]H[dD][Gly(cPent)]PC[Aib]WG[Aib]FWCP[Tle]NR[Aib][dD]C (linker 16-23-30 via TBMB) [Compound 275] |  |  | Ki [3]: 15.9 nM |
